In article PMC11555717 (Cancer Medicine, 2024):

Assay: EV-203 safety/tolerability: adverse events
Type: in vivo, human
Conditions: for Treatment-related adverse event: Any: 1.25 mg/kg
Source text: Safety assessments included physical and ophthalmologic examinations, clinical laboratory tests, 12‐lead electrocardiography, and ECOG PS.
PFS was defined as the time from the start of the study treatment to the first documentation of objective tumor progression (i.e., progressive disease per RECIST version 1.1) by IRC or investigator assessment (whichever was specified) or to death due to any cause, whichever came first. OS was defined as the time from the start of study treatment to the date of death due to any cause. […] AEs of special interest were medical concepts of composite terms based on search criteria (standard Medical Dictionary for Regulatory Activities query or sponsor‐specific query/customized Medical Dictionary for Regulatory Activities query). For example, skin reactions included categories of rash and severe cutaneous adverse reactions (which included specific events such as drug eruption, eczema, dermatitis, mouth ulceration, stomatitis, etc.). Data for treatment‐related AEs (TRAEs) were evaluated by the investigator.
All patients who received any amount of study drug were included in the primary analyses of efficacy endpoints and safety analyses.

## enfortumab vedotin: fully human monoclonal ADC directed to Nectin-4, delivering intracellular monomethyl auristatin E (MMAE) to tumor cells
13 patients
  Treatment-related skin reactions grade 3, patients: 32.5%
15 patients, all events grade 1 or 2
  Treatment-related peripheral neuropathy, patients: 37.5%
16 of 40 patients
  Serious TRAEs, patients: 40.0%
22 of 40 patients
  Dose interruption due to TRAEs, patients: 55.0%
25 of 40 patients
  Dose reduction due to TRAEs, patients: 62.5%
29 of 40 patients
  Grade 3 or higher TRAEs, patients: 72.5%
Any grade, N = 40
  Treatment-related adverse event: Any: 40 (100) n (%)
  Treatment-emergent adverse event: Alopecia: 12 (30.0) n (%)
  Treatment-emergent adverse event: Anemia: 28 (70.0) n (%)
  Treatment-emergent adverse event: Any: 40 (100) n (%)
  Treatment-emergent adverse event: Aspartate aminotransferase increased: 26 (65.0) n (%)
  Treatment-emergent adverse event: Constipation: 19 (47.5) n (%)
  Treatment-emergent adverse event: Decreased appetite: 26 (65.0) n (%)
  Treatment-emergent adverse event: Diarrhea: 19 (47.5) n (%)
  Treatment-emergent adverse event: Hyperglycemia: 20 (50.0) n (%)
  Treatment-emergent adverse event: Hypokalemia: 15 (37.5) n (%)
  Treatment-emergent adverse event: Hyponatremia: 13 (32.5) n (%)
  Treatment-emergent adverse event: Hypophosphatemia: 7 (17.5) n (%)
  Treatment-emergent adverse event: Nausea: 20 (50.0) n (%)
  Treatment-emergent adverse event: Neutrophil count decreased: 19 (47.5) n (%)
  Treatment-emergent adverse event: Pneumonia: 5 (12.5) n (%)
  Treatment-emergent adverse event: Pruritus: 14 (35.0) n (%)
  Treatment-emergent adverse event: Pyrexia: 15 (37.5) n (%)
  Treatment-emergent adverse event: Rash: 17 (42.5) n (%)
  Treatment-emergent adverse event: Rash maculo-papular: 6 (15.0) n (%)
  Treatment-emergent adverse event: Vomiting: 12 (30.0) n (%)
  Treatment-emergent adverse event: White blood cell count decreased: 16 (40.0) n (%)
  Treatment-related adverse event of special interest: Corneal disorder/blurred vision: 2 (5.0) n (%)
  Treatment-related adverse event of special interest: Dry eye: 3 (7.5) n (%)
  Treatment-related adverse event of special interest: Hyperglycemia (composite): 22 (55.0) n (%)
  Treatment-related adverse event of special interest: Infusion-related reaction: 2 (5.0) n (%)
  Treatment-related adverse event of special interest: Peripheral neuropathy (composite): 15 (37.5) n (%)
  Treatment-related adverse event of special interest: Skin reaction (composite): 31 (77.5) n (%)
  Treatment-related adverse event: Alopecia: 12 (30.0) n (%)
  Treatment-related adverse event: Anemia: 27 (67.5) n (%)
  Treatment-related adverse event: Aspartate aminotransferase increased: 25 (62.5) n (%)
  Treatment-related adverse event: Constipation: 16 (40.0) n (%)
  Treatment-related adverse event: Decreased appetite: 25 (62.5) n (%)
  Treatment-related adverse event: Diarrhea: 19 (47.5) n (%)
  Treatment-related adverse event: Hyperglycemia (preferred term): 19 (47.5) n (%)
  Treatment-related adverse event: Hypokalemia: 14 (35.0) n (%)
  Treatment-related adverse event: Hyponatremia: 12 (30.0) n (%)
  Treatment-related adverse event: Hypophosphatemia: 7 (17.5) n (%)
  Treatment-related adverse event: Nausea: 20 (50.0) n (%)
  Treatment-related adverse event: Neutrophil count decreased: 19 (47.5) n (%)
  Treatment-related adverse event: Pruritus: 14 (35.0) n (%)
  Treatment-related adverse event: Rash: 17 (42.5) n (%)
  Treatment-related adverse event: Rash maculopapular: 6 (15.0) n (%)
  Treatment-related adverse event: White blood cell count decreased: 16 (40.0) n (%)
Any grade, 22 patients
  Treatment-related hyperglycemia, patients: 55.0%
Any grade, 31 patients
  Treatment-related skin reactions, patients: 77.5%
Four patients
  Treatment-related hyperglycemia grade 3, patients: 10.0%
Grade ≥ 3, N = 40
  Treatment-related adverse event: Any: 29 (72.5) n (%)
  Treatment-emergent adverse event: Alopecia: 0 n (%)
  Treatment-emergent adverse event: Anemia: 6 (15.0) n (%)
  Treatment-emergent adverse event: Any: 30 (75.0) n (%)
  Treatment-emergent adverse event: Aspartate aminotransferase increased: 1 (2.5) n (%)
  Treatment-emergent adverse event: Constipation: 0 n (%)
  Treatment-emergent adverse event: Decreased appetite: 1 (2.5) n (%)
